As usually defined, the Km is the concentration of substrate that gives half-maximal velocity.

This is an account of results in patent publication US7183110B2, “Antibody immunoreactive with a 5-enolpyruvylshikimate-3-phosphate synthase” (Monsanto Technology LLC, priority 1990, dated 2007).

Data set [1] deals with EPSPS enzymes. As to the kind of experiment: Kinetic characterization of EPSPS enzymes (Km PEP, Ki glyphosate). The data set is classed as biochemical. As to conditions: for Ki/Km: Ki glyphosate / Km PEP; for Km: Km of the EPSPS enzyme for phosphoenolpyruvate, PEP ranges tested in table footnotes. Here is the method: The EPSPS enzymes from these microorganisms were then subjected to further study and analysis.
When the change introduced into the Petunia EPSPS (GA101) was introduced into a number of other EPSPS enzymes, similar changes in kinetics were observed, an elevation of the Ki for glyphosate and of the Km for PEP.
All protein purification procedures were carried out at 3–5° C. EPSPS enzyme assays were performed using either the phosphate release or radioactive HPLC method, as previously described in Padgette et al., 1987, using 1 mM phosphoenol pyruvate (PEP, Boehringer) and 2 mM shikimate-3-phosphate (S3P) substrate concentrations. For radioactive HPLC assays, ^14C-PEP (Amersham) was utilized. S3P was synthesized as previously described in Wibbenmeyer et al. 1988. N-terminal amino acid sequencing was performed by loading samples onto a Polybrene precycled filter in aliquots while drying. Automated Edman degradation chemistry was used to determine the N-terminal protein sequence, using an Applied Biosystems Model 470A gas phase sequencer (Hunkapiller et al., 1983) with an Applied Biosystems 120A PTH analyzer.

For data set [2], the target named is T1, CP4 EPSPS (Agrobacterium sp., UniProt Q9R4E4, S2A).
T1 construct: made in house; host or cells: E. coli, PRecA-gene10L vector
As to the kind of experiment: EPSPS activity from native and synthetic CP4 EPSPS genes expressed in E. coli. The data set is classed as biochemical, Agrobacterium sp. strain CP4. An excerpt: A synthetic CP4 gene was designed to change as completely as possible those inimical sequences discussed above. In summary, the gene sequence was redesigned to eliminate as much as possible the following sequences or sequence features (while avoiding the introduction of unnecessary restriction sites): stretches of G's and C's of 5 or greater; and A+T rich regions (predominantly) that could function as polyadenylation sites or potential RNA destabilization region The sequence of this gene is shown in FIG. 8 (SEQ ID NO:9). This coding sequence was expressed in E. coli from the RecA promoter and assayed for EPSPS activity and compared with that from the native CP4 EPSPS gene. […] The N-terminus of the coding sequence was mutagenized to place an SphI site at the ATG to permit the construction of the CTP2-CP4 synthetic fusion for chloroplast import. The following primer was used to accomplish this mutagenesis:
The EPSPS gene was isolated originally from Agrobacterium sp. strain CP4 and expresses a highly tolerant enzyme. The original gene contains sequences that could be inimical to high expression of the gene in some plants. […] The high G+C % in the CP4 EPSPS gene could also result in the formation of strong hairpin structures that may affect expression or stability of the RNA. A plant preferred version of the gene was synthesized and used for these vectors. This coding sequence was expressed in E. coli from a PRecA-gene10L vector (Olins et al., 1988) and the EPSPS activity was compared with that from the native CP4 EPSPS gene. […] The N-terminus of the coding sequence was then mutagenized to place an SphI site (GCATGC) at the ATG to permit the construction of the CTP2-CP4 synthetic fusion for chloroplast import. This change had no apparent effect on the in vivo activity of CP4 EPSPS in E. coli as judged by complementation of the aroA mutant. A CTP-CP4 EPSPS fusion was constructed between the Arabidopsis thaliana EPSPS CTP (Klee et al., 1987) and the CP4 EPSPS coding sequences. The Arabidopsis CTP was engineered by site-directed mutagenesis to place a SphI restriction site at the CTP processing site. This mutagenesis replaced the Glu-Lys at this location with Cys-Met. The CTP2-CP4 EPSPS fusion was tested for import into chloroplasts isolated from Lactuca sativa using the methods described previously (della-Cioppa et al., 1986: 1987).

Data set [3] relates to rabbit anti-EPSPS antibody. As to the kind of experiment: Western analysis with rabbit anti-EPSPS antibody to the Petunia EPSPS protein. The data set is classed as binding. As to conditions: crude extracts 50 μg protein; control Petunia EPSPS 20 ng; Protein A-125I development. An excerpt:
The presence of EPSPS activity in these extracts was confirmed by enzyme assay. This surprising result, indicating a lack of similarity between the EPSPS's from these bacterial isolates and those previously studied, coupled with the combination of a low Km for PEP and a high Ki for glyphosate, illustrates that these new EPSPS enzymes are different from known EPSPS enzymes (now referred to as Class I EPSPS).

In data set [4] the test system is LBAA EPSPS. As to the kind of experiment: appKm and appKi of LBAA EPSPS wild type and G100A variant in E. coli crude lysates. The data set is classed as biochemical, Achromobacter sp. strain LBAA. To be noted: range of PEP: 2–40 μM. An excerpt: One difference that may be noted between the deduced amino acid sequences of the CP4 and LBAA EPSPS proteins is at position 100 where an Alanine is found in the case of the CP4 enzyme and a Glycine is found in the case of the LBAA enzyme. In the Class I EPSPS enzymes a Glycine is usually found in the equivalent position, i.e Glycine96 in E. coli and K. pneumoniae and Glycine101 in Petunia. In the case of these three enzymes it has been reported that converting that Glycine to an Alanine results in an elevation of the appKi for glyphosate and a concomitant elevation in the appKm for PEP (Kishore et al., 1986; Kishore and Shah, 1988; Sost and Amrhein, 1990), which, as discussed above, makes the enzyme less efficient especially under conditions of lower PEP concentrations. The Glycine100 of the LBAA EPSPS was converted to an Alanine and both the appKm for PEP and the appKi for glyphosate were determined for the variant. The Glycine100Alanine change was introduced by mutagenesis using the following primer:
and both the wild type and variant genes were expressed in E. coli in a RecA promoter expression vector (pMON17201 and pMON17264, respectively) and the appKm's and appKi's determined in crude lysates. […] However, in contrast to the results in the Class I G-A variants, the appKm(PEP) in the Class II (LBAA) G-A variant is unaltered. […]

T1 sequence (Q9R4E4 whole entry S2A): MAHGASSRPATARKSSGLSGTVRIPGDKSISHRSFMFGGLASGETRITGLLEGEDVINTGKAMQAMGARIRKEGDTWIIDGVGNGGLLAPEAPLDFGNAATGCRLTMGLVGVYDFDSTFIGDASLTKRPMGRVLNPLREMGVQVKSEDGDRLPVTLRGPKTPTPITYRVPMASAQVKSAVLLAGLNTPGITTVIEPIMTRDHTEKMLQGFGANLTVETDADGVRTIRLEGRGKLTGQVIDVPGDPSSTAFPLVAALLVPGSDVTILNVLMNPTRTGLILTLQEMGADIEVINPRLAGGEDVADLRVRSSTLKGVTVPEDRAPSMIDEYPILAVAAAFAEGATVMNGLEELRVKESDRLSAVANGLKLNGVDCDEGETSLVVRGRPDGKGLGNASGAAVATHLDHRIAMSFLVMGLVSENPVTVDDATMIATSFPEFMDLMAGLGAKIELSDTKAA

B1: CP4: Class II EPSPS enzyme from Agrobacterium sp. strain CP4 (SEQ ID NO:3) (protein, listed as Agrobacterium sp.)
chain: MSHGASSRPATARKSSGLSGTVRIPGDKSISHRSFMFGGLASGETRITGLLEGEDVINTGKAMQAMGARIRKEGDTWIIDGVGNGGLLAPEAPLDFGNAATGCRLTMGLVGVYDFDSTFIGDASLTKRPMGRVLNPLREMGVQVKSEDGDRLPVTLRGPKTPTPITYRVPMASAQVKSAVLLAGLNTPGITTVIEPIMTRDHTEKMLQGFGANLTVETDADGVRTIRLEGRGKLTGQVIDVPGDPSSTAFPLVAALLVPGSDVTILNVLMNPTRTGLILTLQEMGADIEVINPRLAGGEDVADLRVRSSTLKGVTVPEDRAPSMIDEYPILAVAAAFAEGATVMNGLEELRVKESDRLSAVANGLKLNGVDCDEGETSLVVRGRPDGKGLGNASGAAVATHLDHRIAMSFLVMGLVSENPVTVDDATMIATSFPEFMDLMAGLGAKIELSDTKAA
For the molecule B1, the Ki/Km in data set [1] is 227. Moreover, the Michaelis-Menten constant (Km) worked out at 12 µM in data set [1] and 11.8 µM in data set [2] (expressed in E. coli from the RecA promoter, read-out: apparent Km for PEP). For the same molecule, the “appKm for PEP” value in data set [2] (expressed in E. coli from a PRecA-gene10L vector) came out at 11.8 µM. Also, the “signal in Western analysis with rabbit anti-EPSPS antibody” value in data set [3] is given as “no positive signal could be detected”.

B2: LBAA: Class II EPSPS enzyme from Achromobacter sp. strain LBAA (SEQ ID NO:5); wild type gene expressed from pMON17201 (protein, listed as Agrobacterium sp.)
chain: MSHSASPKPATARRSEALTGEIRIPGDKSISHRSFMFGGLASGETRITGLLEGEDVINTGRAMQAMGAKIRKEGDVWIINGVGNGCLLQPEAALDFGNAGTGARLTMGLVGTYDMKTSFIGDASLSKRPMGRVLNPLREMGVQVEAADGDRMPLTLIGPKTANPITYRVPMASAQVKSAVLLAGLNTPGVTTVIEPVMTRDHTEKMLQGFGADLTVETDKDGVRHIRITGQGKLVGQTIDVPGDPSSTAFPLVAALLVEGSDVTIRNVLMNPTRTGLILTLQEMGADIEVLNARLAGGEDVADLRVRASKLKGVVVPPERAPSMIDEYPVLAIAASFAEGETVMDGLDELRVKESDRLAAVARGLEANGVDCTEGEMSLTVRGRPDGKGLGGGTVATHLDHRIAMSFLVMGLAAEKPVTVDDSNMIATSFPEFMDMMPGLGAKIELSIL
On to B2, for which, in data set [1], the Ki/Km is recorded as approximately 7.9 and the Km was 7.3 to 8 µM. The “appKm(PEP)” value in data set [4] amounted to 5.3 µM. The “signal in Western analysis with rabbit anti-EPSPS antibody” value in data set [3] was “no positive signal could be detected”.
